Reference: patent publication US20260234660A1 (Regeneron, published 2026)

What follows are binders tested against T1, nanodisc embedded human CACNG1 expressed with a C-terminal PADRE-Flag-His tag (human, UniProt Q06432 1-222) (assay: SPR (Biacore T200), 25 C, anti-His-captured human CACNG1 nanodisc, antibody as analyte).
T1 construct: Membrane protein (gamma-1 subunit of the skeletal muscle L-type calcium channel) in a nanodisc; also called human CACNG1 nanodisc; CACNG1 nanodisc; not shown: C-terminal PADRE-Flag-His tag
Method: Equilibrium dissociation constants (KD values) for nanodisc embedded human CACNG1 expressed with a C-terminal PADRE-Flag-His tag (human CACNG1 nanodisc) binding to purified anti-hCACNG1 antibodies were determined using a real-time surface plasmon resonance biosensor technology with a Biacore T200 instrument. The CM5 Biacore sensor surface was derivatized by amine coupling with a monoclonal mouse anti-His antibody (Cytiva; Marlborough, MA). All Biacore binding studies were performed in a buffer composed of 0.01M HEPES, 0.15M NaCl, 1 mM CaCl₂), 0.5 mM MgCl₂, pH 7.4 (HBS-N++ running buffer). Different concentrations of anti-hCACNG1 antibodies (ranging from 300 nM to 12 nM in 5-fold serial dilutions) prepared in HBS-N++ running buffer were injected over the captured human CACNG1 nanodisc at a flow rate of 30 μL/minute. Antibody association was monitored for 2 minutes while dissociation was monitored in HBS-N++ running buffer for 5 minutes. At the end of each cycle, the human CACNG1 nanodisc capture surface was regenerated using three 10 second injections of 10 mM Gly pH1.5. All binding kinetics experiments were performed at 25° C.

T1 sequence (Q06432 whole entry): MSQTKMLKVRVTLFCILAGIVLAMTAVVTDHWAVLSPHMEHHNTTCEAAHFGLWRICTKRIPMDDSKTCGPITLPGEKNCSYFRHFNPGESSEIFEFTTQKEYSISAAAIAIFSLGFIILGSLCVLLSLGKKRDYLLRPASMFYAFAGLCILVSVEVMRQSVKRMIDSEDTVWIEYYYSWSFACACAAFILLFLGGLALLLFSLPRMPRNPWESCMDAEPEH

| mAb Bound at 300 nM (RU) | Binder |
| --- | --- |
| 22 RU | REGN9909 (antibody, mouse IgG2a, kappa, V domains shown, also called antibody designation 10) VH: EVQLLESGGGLVQPGGSLRLSCAASGFTFNNYGMSWVRQGPGKGLEWVSSISGSGGTTFYADSVKGRFTISRDNSKNTLYLQMNSLRAEDTAVYYCGKGGYCSSSGCRHYGMDVWGQGTTVTVSS VL: QSVLTQPPSASGTPGQRVTISCSGSSSNIGNNYIYWYQRLPGTTPKLLIYRNNQRPSGVPDRFSGSKSGTSASLAISGLRSEDEADYYCAAWDDTLSGYVFGTGTKVTVLR |
| 31 RU | REGN10715 (antibody, human IgG4 S228P, kappa, V domains shown, also called antibody designation 2) VH: QVQLQQWGAGLLKPSATLSRTCAVYGGSFSGYYWNWIRQSPGKGLEWIGEILHSGRTNYNPSLKSRVTISVDTSKNQFSLKLTSVTAADTAVYYCAGRIAARHGWFDPWGQGTLVTVSS VL: DIQMTQSPSSVSTSVGDRVTISCRASQDIRKWLAWYQQKPGKAPKLLIYATSSLQSGVPSRFSGSGSGTDFTLTISSLQPEDFATYFCQQANSFPFTFGQGTKLEIKR |
| 53 RU | REGN10713 (antibody, human IgG4 S228P, lambda, V domains shown, also called antibody designation 11) VH: EVQLVESGGNLVQPGGSLRLSCAASGFTFTSHAMNWVRQAPGKGLEWVSVITGRGFDTHYADSVKGRFTISRDISKNTLYLQMNSLRAEDTAVYYCAKGLYDSGNYYIDYWGQGTLVTVSS VL: QSVLTQPPSVSAAPGQKVTISCSGSSSNIGNNYVSWYQQLPGTAPKLLIYDNNKRPSGIPDRFSGSKSGTSATLGITGLQTGDEADYYCGTWDLSLSFNWVFGGGTKLTVLG |
| 9 RU | REGN10783 (antibody, human IgG4 S228P, kappa, V domains shown, also called antibody designation 5) VH: QVQLVESGGGVVQPGTSLRLSCAASGFTFSSYGMHWVRQAPGKGLEWVAVIWIDGSNKYYADSVKGRFTISRDNSKNTLYLQMNSLRAEDTAVYYCARRGGIVVAAPFDYWGQGTLVTVSS VL: not shown |
| 25 RU | H2aM31929N/REGN10728 (antibody, human IgG4 S228P, kappa, V domains shown, also called antibody designation 1) VH: QVQLVESGGGVVQPGRSLRLSCTASGITFRNYGMHWVRQAPGKGLEWVAVMWYDGSNKYYADSVKGRFTISGDNSKVYLQMNSLRAEDTAVYYCARRGTIRTAAPFDYWGQGTLVTVSS VL: not shown |
| 31 RU | REGN10716 (antibody, human IgG4 S228P, kappa, V domains shown, also called antibody designation 4) VH: QVQLQESGPGLVKPSETLSLTCTVSGDSINNYYWTWLRQPPGKGLEWIGYIYYSGSANYNPSLKSRVTISVDTSKNQFSLKLNSVTAADTAVYYCARGAVKYFRHWGQGTLVTVSS VL: EIVLTQSPGTLSLSPGERATLSCRASQTINHNNLAWYQQRPGQAPRLLIYGASNRATAIPDRFSGSGSGTDFTLTISRLEPEDFEVYSCQQYGSLPLTFGGGTKVEIKR |
| 23 RU | REGN7660 (antibody, human IgG4 S228P, kappa, V domains shown, also called antibody designation 9) VH: EVQLVESGGGLVQPGGSLKLSCTASGLTLSDSAMHWVRQASGKGLEWVGRIRNKANRYATEYAASVKGRFTISRDDSKNTAYLQMNSLKTEDTAVYYCTRNWKIFLFDYWGQGTLVTVSS VL: EIVLTQSPGTLTLSPGERATLSCRASQSVGSKYLAWFQQKRGQAPRLLIYGASSRTSGIPDRISGSGSGTDFTLTISRLEPEDFAVYYCQQYGSSPWTFGQGTKVEIKR |
| 19 RU | H2aM31941N (antibody, V domains shown, also called antibody designation 8) VH: QVQLVQSGAEVKKPGASVKVSCKASGYAFTTYGITWVRQAPGQGLEWMGWISAYNGNTNYAEKVQGRFTMTTDTSTNTAYMELRSLRSDDTAVYFCARKGHYGSGTYYNPFGFDFWGQGTMVTVSS VL: EIMLMQSPGTLSLSPGERATLSCRASQSVSSSYLAWYQQKPGQAPRLLIYGASSRATDIPDRFSGSGSGTDFTLTISRLEPEDFAVYFCQQYYGSPWTFGQGTKVEIK |
| 7 RU | REGN10717 (antibody, human IgG4 S228P, kappa, V domains shown, also called antibody designation 3) VH: QVQLVESGGGVVQPGRSLRLSCAASGFTFSTYGMHWVRQAPGKGLEWVAVIWHDGSDKYYVDSVKGRFSIARDNSKNTLYLQMNSLRVEDTGIYYCARRGIRGTVFDHWGLGTLVTVSS VL: DIQMTQSPSTLSASVGDRVTLTCRASQSISNKLAWYQQKPGKAPNLLIYKASNLESGVPSRFSGSGSGTEFTLTISSLQPDDFATYYCQQYNSYSWTFGQGTKVEIKR |
